# Reference: US20220031813A1, “INHIBITOR OF EXTRACELLULAR TRAP FORMATION IN LEUKOCYTES” (priority 2013, published 2022)
# Legend:
# human neutrophils [1] = assay: Rate of NETs formation in PMA-stimulated neutrophils after pre-treatment, counted by confocal microscopy; format: cell-based
# [2] = test system: histone-induced thrombus model mice; assay: Bleeding time duration in histone-induced thrombus model mice; format: in vivo, mouse; details: 20 mg/kg i.v. 30 minutes before histone 60 mg/kg, n=5, vs no therapy; p<0.0001
# Method: As a pre-treatment, 20 mg/kg of bovine lactoferrin was intravenously administered to the tails of 11 week old male C57BL/6 mice, and 30 minute later, 60 mg/kg of histone (sigma, H9250) dissolved in physiological saline and left at 37° C. was intravenously administered to the tails of the mice to check the effect of hemostasis on the DIC model mice (n=5) (Tobias A, et al., Blood, 2011; 118: pp. 3708-3714) (75% of the amount of histone used for improving the survival rate/lifetime extension was adopted). For control group mice without therapy (n=5), 100 μl of physiological saline not containing bovine lactoferrin was intravenously administered to the tails 30 minutes before the administration of histone. For healthy control mice (n=5), physiological saline, instead of the bovine lactoferrin used for the pre-treatment and also instead of histone, was administered. Twenty minutes after the administration of histone, the vein of the tail of each mouse was cut at a position 3 mm from the end, and immersed in a 37° C. physiological saline. At every 30 seconds, the blood was wiped off with a filter paper, and the bleeding time duration was measured (in the case where the bleeding time duration was 15 minutes or longer, the bleeding time duration was recorded as 15 minutes and a hemostasis treatment was performed) (Fuchs T A, et al., Blood, 2011; 118:3708-3714).
# [3] = bovine proteins; cited from earlier work
# [4] = test system: histone-induced thrombus (DIC) model mice; assay: Survival rate/lifetime extension of histone-induced thrombus (DIC) model mice; format: in vivo, mouse; details: 20 mg/kg i.v. 30 minutes before histone 80 mg/kg, n=8; control: one alive; p=0.0005
# Method: 80 mg/kg of histone (sigma, H9250) dissolved in physiological saline and left at 37° C. was intravenously administered to the tails of 11 week old male C57BL/6 mice to create DIC model mice (Tobias A. et al., blood, 29 Sep. 2011, vol. 118, no. 13, pp. 3708-3714). As a pre-treatment, 20 mg/kg of bovine lactoferrin was intravenously administered to the tails of the mice, and 30 minute later, histone was intravenously administered to the tails of the mice (n=8). These mice were labeled as a group of mice provided with therapy with lactoferrin. To the tails of different mice (n=8), 100 μl of physiological saline not containing bovine lactoferrin was intravenously administered, and 30 minutes later, histone was intravenously administered. These mice were labeled as a control group of mice provided with no therapy. The survival rate/lifetime extension after the administration of histone was evaluated by use of the Kaplan-Meier method. The control group of mice provided with no therapy gradually started to die about 20 minutes after the administration of histone. Two days later, two mice were alive, and 4 days later, one mouse was alive. By contrast, the 8 mice in the group provided with therapy with bovine lactoferrin were all alive even 4 days later. […]
# human neutrophils [5] = assay: Specificity experiment: inhibition of NETs formation by DNA concentration in the culture supernatant; format: cell-based; details: n=3, p<0.01, FIG. 10
# Method: About 1 hour after the isolation of the neutrophils described in “1. Method of isolating human neutrophils” in Example 2, the neutrophils were pre-treated. On an 8-well microslide (Cat. No. ib 80826 Ibidi (registered trademark)), the neutrophils were seeded in 400 μl of culture DMEM+2% human serum Alb (serum human albumin; Product No. A9080 Sigma+4 mM L-glutamine) at a rate of about 1.0×10^5 cells/well, and stimulated with PMA (final concentration: 25 nM, stock: 10 mM in DMSO, Sigma Prod No. P8139). At thirty minutes before the stimulation, and at every one hour or every two hours after the stimulation, 200 μg/ml of human lactoferrin (stock: 100 mg/ml, 200 μl; Cat. No. SIGL6793, SIGMA) was added to perform inhibition [FIG. 2].
# The culture supernatant was recovered and centrifuged at 200×g for 10 minutes, and the supernatant was transferred to a new microscopic centrifuge tube. The DNA amount was measured by use of Picogreen dsDNA assay reagent (P11496 Invitrogen) in accordance with an accompanying protocol. Treatment with human lactoferrin at one hour and two hours after the stimulation was a similar effect to the prior pre-treatment, the DNA concentration in the culture supernatant decreased, resulting in suppression of the release of the DNAs by the NETs [FIG. 2]. […]
# [6] = test system: histone-induced thrombus model mice; assay: Bleeding in lung tissues of histone-induced thrombus model mice; format: in vivo, mouse; details: 20 mg/kg i.v. 30 minutes before histone 80 mg/kg, n=4, ten minutes after histone
# Method: As a pre-treatment, 20 mg/kg of bovine lactoferrin was intravenously administered to the tails of 11 week old male C57BL/6 mice, and 30 minute later, 80 mg/kg of histone (sigma, H9250) dissolved in physiological saline and left at 37° C. was intravenously administered to tails of the mice to create DIC model mice (n=4) (Tobias A., et al., Blood, 29 Sep. 2011; vol. 118: no. 13, pp. 3708-3714). For control group mice with no therapy (n=4), 100 μl of physiological saline not containing bovine lactoferrin was intravenously administered to the tails 30 minutes before histone was intravenously administered. For healthy control group mice (n=4), physiological saline, instead of the bovine lactoferrin used for the pre-treatment and also instead of histone, was administered. Ten minutes after the administration of histone (second administration of physiological saline), the mice were put to euthanasia. Lung tissues were extracted and immobilized by use of 4% paraformaldehyde.
molecule,measurement,setting,value
"bovine lactoferrin: bovine lactoferrin (Product No. 123-04124 WAKO); in Example 9 eluted from crude bovine milk protein; cow lactoferrin SEQ ID NO 2 (protein, listed as Bos taurus) MKLFVPALLSLGALGLCLAAPRKNVRWCTISQPEWFKCRRWQWRMKKLGAPSITCVRRAFALECIRAIAEKKADAVTLDGGMVFEAGRDPYKLRPVAAEIYGTKESPQTHYYAVAVVKKGSNFQLDQLQGRKSCHTGLGRSAGWIIPMGILRPYLSWTESLEPLQGAVAKFFSASCVPCIDRQAYPNLCQLCKGEGENQCACSSREPYFGYSGAFKCLQDGAGDVAFVKETTVFENLPEKADRDQYELLCLNNSRAPVDAFKECHLAQVPSHAVVARSVDGKEDLIWKLLSKAQEKFGKNKSRSFQLFGSPPGQRDLLFKDSALGFLRIPSKVDSALYLGSRYLTTLKNLRETAEEVKARYTRVVWCAVGPEEQKKCQQWSQQSGQNVTCATASTTDDCIVLVLKGEADALNLDGGYIYTAGKCGLVPVLAENRKSSKHSSLDCVLRPTEGYLAVAVVKKANEGLTWNSLKDKKSCHTAVDRTAGWNIPMGLIVNQTGSCAFDEFFSQSCAPGADPKSRLCALCAGDDQGLDKCVPNSKEKYYGYTGAFRCLAEDVGDVAFVKNDTVWENTNGESTADWAKNLNREDFRLLCLDGTRKPVTEAQSCHLAVAPNHAVVSRSDRAAHVKQVLLHQQALFGKNGKNCPDKFCLFKSETKNLLFNDNTECLAKLGGRPTYEEYLGTEYVTAIANLKKCSTSPLLEACAFLTR","rate of the NETs formed at plateau, compared with stimulation merely with PMA","human neutrophils [1]; pre-treatment 2 μg/ml for 30 minutes, then PMA 25 nM",half
same,"rate of the NETs formed at plateau, compared with stimulation merely with PMA","human neutrophils [1]; pre-treatment 20 μg/ml for 30 minutes, then PMA 25 nM",half
same,"formation of the NETs at plateau, compared with stimulation merely with PMA","human neutrophils [1]; pre-treatment 200 μg/ml for 30 minutes, then PMA 25 nM",¼
same,inhibitory effect on the formation of the NETs,"human neutrophils [1]; pre-treatment with 2, 20 or 200 μg/ml, FIG. 1-A, 1-B",concentration-dependent manner
same,bleeding time duration,[2],significantly shorter
same,Isoelectric point,[3],8.2-8.9
same,mice alive 4 days after histone,[4],8 mice
same,inhibition of the formation of the NETs,human neutrophils [5],inhibited
same,bleeding in lung tissues,[6],not observed to bleed almost at all
